{"source": "the DeepSol protein solubility set", "data": [{"assay": "soluble on expression in E. coli; label from the status in PepcDB or PDB records", "values": [{"sequence": "MGRDRISELPDGLLNHILMYLHIEESIRTSVLSSRWRKLWLKVPGLDVNVHDFPADGNLFESLMDKFLEVNRGRLQNFKLNYESNLYYLMDRFVPWIATVVDRGIQHLDVTATDCPPWTIDFMPANICKSKTLVSLKLVNVGLDTPKFVVSLPCLKIMHLEDIFYSPLIAENLISGCPVLEDLTIVRNHEDFLNFLRVMSQTLKNFRLTFDWGMGSNDFSVEIDAPGLKYMSFRDSQSDRIVVKNLSSLVKIDLDTEFNLKFGLGSPLEPEDLTKRDIIRDFLTGISSVKHMIISHPTLEVLYRYSKIGQLPKFHNLYHLQAVFSSSLLQLLPAFLEICPNLKNLILDYSISAEPEQIDFTNLPRCLISTLEYVEIKQLTMREESGIKLVKYFLENSAVLKKLTLSFIDSPMTNQESEIYMQLLTSTKRSRGCHVLIL", "soluble on expression in E. coli": "soluble"}, {"sequence": "MRDAQRPDLSTTFTVLLAGGRGSRLHELTSRECKPALPFAGPRRIVDFTLANAARSGLTRMIVATQYRPETLAHHLESRWASRFAGGSLRLREGTAVTGSPQGYGGTAAAVAANLAELQSEGVRELVVLAADHVYEMDYADMVAAHRASGASATVAVDTVPTDRASEFGVVRTSEGGRIESFLEKPAVVPADPAIPGRAQVSMGIYVFDLDWLASVLRIIPGATQDFGHDILPLAVALGEAHAYRVPGDNFYWRDVGTLDAYRLAQLEFQTGEAPCALPPRIAASEHEMKAATGELIQFAFRMQTGGIALHSPRLGGDLPGRWTMLDESVLLPGARVAPGVRLTRTIVAPGTSVPAGLVIGEDPDEDARWFRRTEEGTVLVTTPMLARRAADRGRLVAPFADSRMGRSALEHHHHHH", "soluble on expression in E. coli": "not soluble"}, {"sequence": "MGHHHHHHGGHMSLNISDVAKITGLTSKAIRFYEEKGLVTPPMRSENGYRTYTQQHLNELTLLRQARQVGFNLEESGELVNLFNDPQRHSADVKRRTLEKVAEIERHIEELQSMRDQLLALANACPGDDSADCPIIENLSGCCHHRAGEGGS", "soluble on expression in E. coli": "soluble"}, {"sequence": "MTATEPTEKILPSPDYVQSLARGLAVIRCFDHRNQRRTLSDVARATDLTRATARRFLLTLVELGYVATDGSAFWLTPRVLELGYSYLSSLSLPEVAQPHLEKLSHKVHESSSVSILDGADIVYVARVPVSRIMTVGITIGTRLPAYATSMGRVLLAGLPDDELDAYLEKLDIQRLTERTITARDELKAAILAVRADGICVLDQELEAGLRSMAAPIRGASGLTVAAVNISTPAARYSLEDLHSDLIPSLRVTATDIEQDLATVNR", "soluble on expression in E. coli": "soluble"}, {"sequence": "AHHHHHHASAKWVCKICGYIYDEDAGDPDNGISPGTKFEELPDDWVCPICGAPKSEFEKLEDGSRGAYILLLYLPRNSIIKTKGKVFRLKKGYYAYVGSGMNSLEGRVLRHLRKDKKLHWHIDYLTLIATPLKAYLVPSPVRIEEELSKSLNMVGKVVKGFGSSDLSVPGNLFFFDKDPSEKIEEIVWAFLSRKPKSDDLRQDTS", "soluble on expression in E. coli": "soluble"}, {"sequence": "SSSTSHSSLKSPSHMEKYPQKEKTKEDLDSRSNLHLPETKFSELSKLKNDDMEKANHIESVIKSNLPNCANSDTDFMGLFKSSRYDPSISFSGMSLSDTMTLRGSVQNKLNPRPGKVVIYSEPDVSEKCIEVFSDIQDCSSWSLSPVILIKVVRGCWILYEQPNFEGHSIPLEEGELELSGLWGIEDILERHEEAESDKPVVIGSIRHVVQDYRVSHIDLFTEPEGLGILSSYFDDTEEMQGFGVMQKTCSMKVHWGTWLIYEEPGFQGVPFILEPGEYPDLSFWDTEAAYIGSMRPLKMGGRKVEFPTDPKVVVYEKPFFEGKCVELETGMCSFVMEGGETEEATGDDHLPFTSVGSMKVLRGIWVAYEKPGFTGHQYLLEEGEYRDWKAWGGYNGELQSLRPILGDFSNAHMIMYSEKNFGSKGSSIDVLGIVANLKETGYGVKTQSINVLSGVWVAYENPDFTGEQYILDKGFYTSFEDWGGKNYKISSVQPICLDSFTGPRRRNQIHLFSEPQFQGHSQSFEETTSQIDDSFSTKSCRVSGGSWVVYDGENFTGNQYVLEEGHYPCLSAMGCPPGATFKSLRFIDVEFSEPTIILFEREDFKGKKIELNAETVNLRSLGFNTQIRSVQVIGGIWVTYEYGSYRGRQFLLSPAEVPNWYEFSGCRQIGSLRPFVQKRIYFRLRNKATGLFMSTNGNLEDLKLLRIQVMEDVGADDQIWIYQEGCIKCRIAEDCCLTIVGSLVTSGSKLGLALDQNADSQFWSLKSDGRIYSKLKPNLVLDIKGGTQYDQNHIILNTVSKEKFTQVWEAMVLYT", "soluble on expression in E. coli": "soluble"}, {"sequence": "MSIQYEAPLADSYGVADSFPKDFGYGEEEGDIEDSPSPSDSKPRILLMGLRRSGKSSIQKVVFHKMSPNETLFLESTNKIYKDDISSSSFVNFQIWDFPGQVDFFDPTFDYELIFRGTGALIFVIDAQDDYVEALSRLHLTVSRAYRVNPEINFEVFIHKVDGLSDDHKIETQRDIHQRANDDLADASLEKLHLSFYLTSIYDHSIFEAFSKVVQKLIPQLPTLENLLNIFISNSGIEKAFLFDVVSKIYIATDSSPVDMQSYELCCDMIDVVIDVSCIYGLKEDGSGSAYDKESMAIIKLNNTTVLYLKEVTKFLALVCILRGESFERKGLIDYNFHCFRKAIHEVFEVGVSTSRTSNQPVGTPLMKTVALNGTPRSTV", "soluble on expression in E. coli": "soluble"}, {"sequence": "MGSDKIHHHHHHMRKLIFIAFMVMSVCGYAQKYEVGTTTAVWKAPAAADFLHAKAIGVKYVEVAFNQCYRGVPVDEVIPRIKEMKAKIDSADIEVWSIHLPFSRTLDISVLDDRLRKENVDFMAEMIELCAMFQPTCLVLHPSSEPIADSIRAQRIANASESIAYLKKYADRIGAQLCIENLPRTCLGNTPEELMRIVGDIPDVKVCFDTNHYTKGTTEHFVAIVGSRIGTIHASDFDLVNECHWLPTQGNIKWGKLMQDLEKTGYKGVFMYEATKDHENNNVRPALERIAETFDKITDDYKTLK", "soluble on expression in E. coli": "not soluble"}, {"sequence": "MSLIRCTDINEITPFSSFISKIPNHCGTHMDASRHFVKDGLSINELPIGYFCHKDVVLLEVPKGEAEGITKEDLEPYAAILAQVSFAFLCTGFEKYRTENPLIYQNEGPYIATSAGKYLSDNYPNLKGVGIWFPCTWFAVFSCTEGHHHHHH", "soluble on expression in E. coli": "not soluble"}, {"sequence": "MGSDKIHHHHHHMGNVASSEVINQLEAWYQAIKRLQLAEATTIKHEVMQAIDGMDQDRKVFLYYHLIDSRYHLLIHQWDYAGAILKGLKAQVELKETDKLLRYYYYFFSGLYEFHTKQYIEAIHFYRLAESLLKDIPDDIEQAEFNYQLAVAYYEIDQHFVSMDHAEKALELYLQNDQYKNRVATTQMIVAANQLDLYQFASAEALYKNAIELASDVQDFFVKGMGYYNLGVCYDRQDKLDLARECFESALYVDLPKSQYQGVMVGTKYMLARVLFKQGILEEGMHWFEEAKALADEMKDASYQAKLSTIHSIYKERDEVEIDDGLRVLKEGKLWSDVFELAINAARHFQEKEDYSLAAKYFDEGLVAKDQIKAWKEDTAST", "soluble on expression in E. coli": "not soluble"}, {"sequence": "MRKIILASGSPRRKELLELAGVPFEIIVSEVEETIGAYSSPSDIVMSLALQKASAVAENNSDHIVLGADTIVTYESRILGKPSNKAEAKEMLQLLSGKTHEVYTGVAIIAKDKTVTFYERTEVTFWELTEEEIDAYVASKEPLDKAGSYGIQGKGSIFVQHIQGDYYSVVGLPISRLVRELKQFNIDVTHA", "soluble on expression in E. coli": "not soluble"}, {"sequence": "MGSDKIHHHHHHMNIVTLISWDFKRNNESFQRAIINGYDYWSRILDDHGVEKYVILLTCNRVELYYRGDPFDVQEKGYNIISDDMAINHLFHVAAGLDSMSIGENEVLKQVKQAYEKSSSMGKSDKFLSLIFQRAISVGKLVRSKTGIGKGKVSIPSIVYDIVRKNGGNKILLVGNGMLASEIAPYFSYPQYKVTVAGRNIDHVRAFAEKYEYEYVLINDIDSLIKNNDVIITATSSKTPIVEERSLMPGKLFIDLGNPPNIERGNNVITLDEIYEISKKNEMLREEKINQAEILIENEMKATMNKIKDLMIDDIFSQFYRFASVVQTMEIQKFRKMHPEVNENDLEALAHSIINKILNVPVTTLKAVSRSQGNSDFNRLFESFSSNFNDIVSAALQSYEGLRDTQSLRDRTRQLLQKS", "soluble on expression in E. coli": "not soluble"}, {"sequence": "ESLDEVVVVGMGTQRKVSVVGAVTSVNPAAISAPSTSVANMLGGVVPGIIAVDRSGEPGQDVSEFWIRGISTFGANQSALVLIDGIEGNLNDLDPSDIESFSILKDASATAVYGVRGANGVVLVTTRSGQEGR", "soluble on expression in E. coli": "not soluble"}, {"sequence": "IGDMAPKANMGWYNSFSYKGFNLGMMLTARLGGLVVSNTQGVLDYYGVSKASADARDAGGVWINNGYVDAKEYYQTIGGSNGGLGQYYTYSATNVRLSELSFSYAFPKKWFNNKVGITAGFVAKNLWMIYCKAPFDPELTASTSSNFYQGVDYFMTPSTRNLGFNVKFQF", "soluble on expression in E. coli": "not soluble"}, {"sequence": "MQLSPKEFEYQFRCLYRPLNMYALRYTENLDDAEDIVQQAFSDVWEKLVGGTSIQNLKAYMYQTVRNRSLTLITNRQTHCETTELTDLEDLTEEERIIRSERDARLWTAIDHLPTERKKIFLLSKRDGLTYQEIATELGISIKTVEHQISKALKTLRETAIKIYTFFFG", "soluble on expression in E. coli": "not soluble"}, {"sequence": "MNKFHDIFLELEQQIVQGDYQPGDLLPSENQLVETYNVSRETIRKALNLLINAGYIQKKQGKGSIVLNFKKFNFPISGVTSYKELQQTQHIESHTHVVSLEEIPVERNLAQLTGWTEGAPVWRLVRQREIEGEVDILDIDYLIKEIVPELPKHRAEDSIFDYLENDLGLAISYAQKEITVEPLTEMDKQLIGEVEGNHVVVVRSIMNLEDTRCFGYTESRHRLNKFKFVEFARRRKL", "soluble on expression in E. coli": "not soluble"}, {"sequence": "QILSIDPLDISQNLAAVNKSLSDALQHLAQSDTYLSAI", "soluble on expression in E. coli": "soluble"}, {"sequence": "MERGQSLALQSNRNRPYMIRIIQPILRSERRRKLGREYFILHRKLSDCFSSIKWALPAKGDNSHGCSYPVMEHRSLIMRRLKDVDMYMQENKRTNLRLAISKLHGMIIRPGETFSVWRHVGRPTARKGYLEGLVLSQGKIGKGVGGGLCQLGNLLFWMFAHTPLSIVERHRHSFDVFPDINRSIPFGAGATLSYNYIDLRVSNNTPHTYRLELWLDDTHLNGRISSDTEQRDRYRIEETDHRIEHQSWGGYTRHNKLVRIVTRADGSEYTEPFVENHAIMMYNPLLSPPQNGASTSFQR", "soluble on expression in E. coli": "not soluble"}, {"sequence": "MSLEFIPRSEQRPIVDTSSTTLDLIYFDLVTLASNEQDIRRLPAHESLYVVLSGQVDIEVDGIMFEAVGRRADIWGGDADSVYAPVGANVRISARGAAAEVAIAGGLCDTRYAAFRITPDEVDAVNVGSSDTHSQRRIVHLLGQRQNGRCGNLLVSELYAGEGCWSGYPPHKHDTEDGDVETRHEELYHYRFQPETGFGSQITYDEDGPVKILMTRNGDTVLVDRGYHPTVTSPGHQGYIFTILVGKHRRGLIQRFDPAHQHLTKTIPGEGHHHHHH", "soluble on expression in E. coli": "soluble"}, {"sequence": "MSLGCTNFIQVGTVLGAPNVFLIGDAREVGHQGYENILREAKKVLTFDLDEKLRGFKNIVVYPGTFDFEGIVKNLDSDAKITVDIAYDVNDADELSRVYGASHALAISTSSELFSSLALENLGPLLKACKTRSAKHLLLKENRGGSRLFDLESGESWEIPATLARTVNSVGVGDVYTAVFAALIDHGALTAALRGMQAATRYAQTTFPDDFKRDVQRDFKLTPDEVLSLGGVLLPWHDRPHFEIYLAAPDFSYMEKAEVDAAVEALLYHNFTVRRPVQDNGEACPGTPAEDLRSYYDRDVELLRRCSLVFAVPLNRDPGTLVEIGLAIAAGTPVVTYDPRQENNNTMVICGSDAYSDDLDQCLNSTFELLAKLREQAKEGHHHHHH", "soluble on expression in E. coli": "not soluble"}, {"sequence": "MQSFADAKEFFQYSAGQWQSRRVTHHLPFRRAESGGSNIQVETLEKDDPRIIEICQMHDMDASLSVGGSYVTWAGTMQWDKDDENHEGSTVFALIPDADNPRQGKLLRERGYAEIVPVAGEYHLDHEDGLVLTTEYETMTIYERFWFANPDLRLRTSTVKRFGGFNTTTFCMEERIQTSPVTATAAAETNPLYAISGW", "soluble on expression in E. coli": "not soluble"}, {"sequence": "RIWRIIPDTSVIIDGRLSSRIKSGEFGSAEVIIPEAVVSELEAQANKGREIGFKGLEELSELRKLADRGDIQLKFSGVQPSLEEIKLSREGRVDALIRQTALDEGGLFVSEDRVQSLIARAKGLDVEYMHPKV", "soluble on expression in E. coli": "not soluble"}]}]}
